Legend:
[1] = molecular target: T1, human factor B (purified, Complement Technology A135) (human, UniProt P00751 26-764); experiment: ELISA, plate coated with human factor B, anti-human kappa light chain HRP
T1 construct: also called fB; human complement factor B
Method: The binding activities of these mAbs towards factor B were analyzed by ELISA using standard protocols. In one exemplary experiment, MaxiSorp™ ELISA plates (Nunc, #439454, Rochester, N.Y.) were coated with 50 μL of human factor B (Complement Technology, A135, 1 mg/mL, lot 14c) at a concentration of 0.5 μg/mL in carbonate coating buffer (0.795 g carbonate+1.46 g bicarbonate+1 mL 1% NaN₃ (final concentration of 0.002%) in 500 mL water, pH 9.6 (lot 02 August 10)). Plates then were covered with plate sealers and incubated at 37±1° C. for one hour. Following coating, wells were emptied of reagent and washed in a BioTek® ELx405 plate washer (BioTek, Winooski, Vt.) for three times with 200 μL wash solution (PBS/0.05% Tween 20) per well. Following washes, wells were blocked with 100 μL of BSA (1% w/v) and incubated for one hour at room temperature. Wells were then washed again as described above. Fifty microliter samples (i.e., TA106 Fab, CLS011 mAb, CLS012 mAb, and CLS013 mAb) were then added to wells and incubated for one hour at room temperature. […] The plate was read on a Benchmark™ microplate reader (Bio-Rad Laboratories, Hercules, Calif.) at 450 nm. Standard curves were plotted with 4 parameter fit with DeltaSoft® 1.6 software, and sample concentrations were determined from the standard curves.

[2] = molecular target: T1, human factor B (purified, Complement …); experiment: BLI (Octet), biotinylated factor B on streptavidin biosensor, Fab at 3.13 nM
Method: Binding kinetics of TA106 and TA106 S33A Fab (CLS016) to Factor B were analyzed using a FortéBio® Octet® biosensor (FortéBio, Inc.) in a similar protocol as described previously. In one exemplary experiment, Factor B (Complement Technology) was biotinylated at a 1:10 ratio and coupled to a streptavidin biosensor at a concentration of 5 μg/mL for a loading time of 600 seconds. Biosensors were briefly dipped in 1×KB as a wash for 30 seconds. Associations with a titration series of Fab with a concentration range from 100 to 3 nM (diluted in 1×KB) were carried out for 600 seconds. Fabs were dissociated from the biosensor by immersing the biosensor in 1×KB during the 600 second dissociation phase. As depicted in FIGS. 19 and 20, both TA106 Fab and TA106-derivative S33A Fab (CLS016) bound to Factor B at various concentrations, resulting in nearly identical association and dissociation profiles. Kinetic assessments using partial local fit parameters yielded identical values for KD/kₐ/Kd at each concentration tested.

[3] = molecular target: T1, human factor B (purified, Complement …); experiment: SPR (Biacore), factor B directly bound to the chip at low coverage, TA106 Fab flowed over
Source text: The difference in the two Biacore data sets could be explained as either that the conformation of factor B changes when binding to the surface or that not all commercial factor B is active. This later Biacore experiment (with a fixed concentration of factor B bound to the chip) removed the factor B concentration from the calculation.

[4] = molecular target: T1, human factor B (purified, Complement …); experiment: SPR (Biacore 3000), Fab captured by human Fab binder on CM5 chip, soluble human factor B 3.1-200 nM; Fab captured on chip, soluble factor B
Source text: Binding kinetics of mAbs were further characterized using Biacore's Surface Plasmon Resonance (SPR) technology (GE Healthcare, Piscataway, N.J.). For a detailed description of SPR and its applications in affinity measurement, please see Karlsson and Larsson, Antibody Engineering: Methods and Protocols, Methods in Molecular Biology (2003), 248: 389-415. In one exemplary experiment, TA106 Fab and derivative mAbs were captured on chips of a Biacore 3000 analyzer and samples of human factor B of different concentrations were flowed as the antigen over the surface to model soluble human factor B binding, using protocols recommended by the manufacturer (e.g., in the product brochure #BR-9003-31). All these referenced publications are hereby incorporated by reference in their entirety. […] Fab TA106 (Xoma, Lot#TTA1007, 20 mg/mL) was then flowed over one flow cell, followed by injections of human factor B on both flow cells. Concentrations (factor B) between 3.1-200 nM were run. The surface was regenerated between each cycle. […] The affinities of mAbs, i.e., CLS011, CLS012, and CLS013, were determined using a similar capture approach. In one exemplary experiment, human anti-Fc antibody was amine coupled to two flow cells of a CM5 chip. Each of the TA106-originated mAbs was then flowed over one flow cell, followed by injecting human factor B (3.1-200 nM) on both flow cells. […]

T1 sequence (P00751 26-764): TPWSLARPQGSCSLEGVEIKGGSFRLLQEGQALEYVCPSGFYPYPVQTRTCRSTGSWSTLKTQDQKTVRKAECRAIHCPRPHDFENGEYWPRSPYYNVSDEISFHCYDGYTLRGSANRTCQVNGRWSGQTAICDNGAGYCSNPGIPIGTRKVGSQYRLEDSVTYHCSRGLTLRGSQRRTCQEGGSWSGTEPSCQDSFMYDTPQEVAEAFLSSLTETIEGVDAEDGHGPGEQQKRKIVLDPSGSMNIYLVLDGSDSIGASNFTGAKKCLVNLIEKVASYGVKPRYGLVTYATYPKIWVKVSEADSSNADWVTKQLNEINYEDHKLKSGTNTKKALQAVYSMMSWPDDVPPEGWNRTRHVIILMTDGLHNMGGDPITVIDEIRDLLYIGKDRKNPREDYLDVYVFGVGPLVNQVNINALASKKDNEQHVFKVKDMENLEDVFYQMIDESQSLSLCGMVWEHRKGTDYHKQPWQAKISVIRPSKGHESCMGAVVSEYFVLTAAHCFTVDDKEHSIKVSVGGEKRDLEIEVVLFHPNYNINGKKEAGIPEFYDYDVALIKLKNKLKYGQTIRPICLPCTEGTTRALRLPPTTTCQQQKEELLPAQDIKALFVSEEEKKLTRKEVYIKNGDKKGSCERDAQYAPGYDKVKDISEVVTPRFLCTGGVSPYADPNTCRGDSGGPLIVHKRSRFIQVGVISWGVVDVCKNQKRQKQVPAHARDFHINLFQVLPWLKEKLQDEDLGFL

EC50 [1]: 0.57 nM
Kd [2]: 32.3 nM
koff [2]: 0.00239 s⁻¹
kon [2]: 74000 M⁻¹ s⁻¹
Kd [3]: 1.4 nM
Kd [4]: ~24.9 nM
B1: TA106 Fab (humaneered anti-factor B Fab, expressed in E. coli) (Fab, V domains shown)
VH: QVQLVQSGAEVKKPGASVKVSCKASGYSFTDYYMTWVRQAPGQGLEWMGWINPNSGGTKYAQKFQGRVTMTRDTSISTAYMELSRLRSDDTAVYYCARGYYANSAWFAYWGQGTLVTVSS
VL: DIVMTQSPDSLAVSLGERATINCKSSQSLLNSSTSKNYLAWYQQKPGQPPKLLIYWASTRESGVPDRFSGSGSGTDFTLTISSLQAEDVAVYYCKQVYNLPWTFGQGTKLEIKR
notes: Fab made in E. coli by Xoma, not glycosylated; also called Fab TA106; TA106 wild type Fab

Reference: patent US20150166643A1 (Alexion, published 2015)
